Residue numbers refer to the chain shown, from its start.
Assays:
[1] = target: T1, AAV5 (adeno-associated virus serotype 5 (AAV5)); assay: 1 mL column of A4-002 coupled to agarose gel (11.58 mg/g gel); AAV capsid particles bound
T1 construct: also called adeno-associated virus serotype 5; AAV5 antigen

[2] = target: T2, AAV6 (adeno-associated virus serotype 6 (AAV6)); assay: as above
T2 construct: also called adeno-associated virus serotype 6

[3] = target: T3, AAV8 (adeno-associated virus serotype 8 (AAV8)); assay: as above
T3 construct: also called adeno-associated virus serotype 8; AAV8 antigen

[4] = target: T4, AAV9 (adeno-associated virus serotype 9 (AAV9)); assay: as above
T4 construct: also called adeno-associated virus serotype 9; AAV9 antigen

[5] = target: T5, AAV2 (adeno-associated virus serotype 2 (AAV2), UniProt P03135 1-735); assay: 1 mL column of A4-024 coupled to agarose gel (6.36 mg/g gel); AAV capsid particles bound
T5 construct: also called adeno-associated virus serotype 2; AAV2 antigen

[6] = target: T1, AAV5; assay: as above
[7] = target: T2, AAV6; assay: as above
[8] = target: T3, AAV8; assay: as above
[9] = target: T4, AAV9; assay: as above
[10] = target: T1, AAV5; assay: 1 mL column of A4-008 coupled to agarose gel (9.77 mg/g gel); AAV capsid particles bound
[11] = target: T2, AAV6; assay: as above
[12] = target: T3, AAV8; assay: as above
[13] = target: T4, AAV9; assay: as above
[14] = target: T1, AAV5; assay: 1 mL column of A4-008 coupled to agarose gel (10.74 mg/g gel); AAV capsid particles bound
[15] = target: T2, AAV6; assay: as above
[16] = target: T3, AAV8; assay: as above
[17] = target: T4, AAV9; assay: as above
[18] = target: T1, AAV5; assay: 1 mL column of A4-014 coupled to agarose gel (3.12 mg/g gel); AAV capsid particles bound
[19] = target: T2, AAV6; assay: as above
[20] = target: T3, AAV8; assay: as above
[21] = target: T4, AAV9; assay: as above
[22] = target: T6, AAV8 (adeno-associated virus serotype 8); assay: SPR, AAV on CM5 chip
T6 construct: also called adeno-associated virus serotype 8

[23] = target: T7, AAV2 (adeno-associated virus serotype 2, UniProt P03135 1-735); assay: SPR, AAV on CM5 chip
T7 construct: also called adeno-associated virus serotype 2

[24] = target: T8, AAV9 (adeno-associated virus serotype 9); assay: SPR, AAV on CM5 chip
T8 construct: also called adeno-associated virus serotype 9

[25] = target: T9, AAV5 (adeno-associated virus serotype 5); assay: SPR, AAV on CM5 chip
T9 construct: also called adeno-associated virus serotype 5

B1: A4-002 (VHH)
VHH: VQLQESGGGLVQPGGSLRLSCAASGRSFSINTMGWYRQAPGKQRELVAAVTRGGSTNYAGSVKGRFTISRDNAKNTVYLQMNSLRPEDTAVYYCHIDEVRQSSWTTSNIWGQGTQVTVSS
binding capacity [1]: 1.17e+14 VP
binding capacity [2]: 9.2e+13 VP
binding capacity [3]: 1.02e+14 VP
binding capacity [4]: 1.26e+14 VP

B2: A4-024 (VHH)
VHH: B1 VHH with R26S, S27N, S29R, A49T, G60D, A73P, I96V, Q101E, I109L
binding capacity [5]: 7.65e+13 VP
binding capacity [6]: 4.8e+13 VP
binding capacity [7]: 6.09e+13 VP
binding capacity [8]: 5.17e+13 VP
binding capacity [9]: 6.5e+13 VP

B3: A4-008 (VHH)
VHH: B1 VHH with P13A, S27A, G41P, A49T, V77I, I96V
binding capacity [10]: 8.56e+13 VP
binding capacity [11]: 8.78e+13 VP
binding capacity [12]: 9.47e+13 VP
binding capacity [13]: 8.83e+13 VP
binding capacity [14]: 8.95e+13 VP
binding capacity [15]: 9.43e+13 VP
binding capacity [16]: 1.16e+14 VP
binding capacity [17]: 9.17e+13 VP

B4: A4-014 (VHH)
VHH: B1 VHH with R26S, S27R, T32S, A49T, S55N, I96V, Q101E, I109L
binding capacity [18]: 3.22e+13 VP
binding capacity [19]: 2.59e+13 VP
binding capacity [20]: 3.83e+13 VP
binding capacity [21]: 4.3e+13 VP

B5: A4-B3 (VHH)
chain: VQLVESGGGLVQPGGSLRLSCAASGRSFSINTMGWFRQAPGKGLEAVAIVTRGGSTYYADSVKGRFTISRDNSKNTLYLQMNSLRAEDTAVYYCHIDEVRQSSWTTSNIWGQGTLVTVSSGGGGSGGGGSGGGGSVQLVESGGGLVQPGGSLRLSCAASGRSFSINTMGWFRQAPGKGLEAVAIVTRGGSTYYADSVKGRFTISRDNSKNTLYLQMNSLRAEDTAVYYCHIDEVRQSSWTTSNIWGQGTLVTVSS
Kd [22]: 0.835 nM
koff [22]: 8e-05 s⁻¹
kon [22]: 95800 M⁻¹ s⁻¹
Kd [23]: 0.245 nM
koff [23]: 2e-05 s⁻¹
kon [23]: 81600 M⁻¹ s⁻¹
Kd [24]: 20.3 nM
koff [24]: 0.00095 s⁻¹
kon [24]: 46800 M⁻¹ s⁻¹
Kd [25]: 0.556 nM
koff [25]: 0.0001 s⁻¹
kon [25]: 180000 M⁻¹ s⁻¹

B6: A4-B4 (bispecific antibody)
chain: B5 chain with R161S, S162I, T167L, A181L, V185I, R187P, S190N, L212V, I231V, I244L
Kd [22]: 0.332 nM
koff [22]: 5e-05 s⁻¹
kon [22]: 151000 M⁻¹ s⁻¹
Kd [23]: 0.835 nM
koff [23]: 8e-05 s⁻¹
kon [23]: 95800 M⁻¹ s⁻¹
Kd [24]: 5.26 nM
koff [24]: 0.00063 s⁻¹
kon [24]: 120000 M⁻¹ s⁻¹
Kd [25]: 0.872 nM
koff [25]: 0.00016 s⁻¹
kon [25]: 184000 M⁻¹ s⁻¹

From patent US20260193326A1 (published 2026)
